The results in this text go back to paper PMC7940618, “Specific inhibition of the Survivin–CRM1 interaction by peptide-modified molecular tweezers” (Nature Communications, 2021).

Peptide text beside a SMILES is read from it. * marks the point of attachment. X1 = O=C(Cn1cc(CCOP(=O)(O)Oc2c3c(c(OP(=O)(O)O)c4c2C2CC4c4cc5c(cc42)C2CC5c4ccccc42)C2CC3c3cc4c(cc32)C2CC4c3ccccc32)nn1)*; 5FAM = O=C1OC2(c3ccc(O)cc3Oc3cc(O)ccc32)c2ccc(C(=O)*)cc21

One test has as its target T1, Survivin120 K90/103T (Homo sapiens, UniProt O15392, K103T/K90T).
T1 construct: the only published NMR structure originated from a truncated Survivin (aa 1-120) with improved solubility; GST with PreScission site (N); made in house; host or cells: Escherichia coli soluBL21
Nature of the test: Fluorescence anisotropy binding of FAM-labeled tweezers to Survivin120 K90/103T. The procedure:
(§1) Fluorescence anisotropy was measured with a Jasco Spectrofluorometer FP-8300 in PBS buffer, pH 7.4, at 25 °C and data were collected with the software Spectra Manager™.
(§2) For binding studies, FAM-labeled molecular tweezers (200 nM) were titrated with Survivin120 wildtype or K90/103T mutant until a final concentration of 180 µM (wildtype) or 350 µM (K90/103T) was reached. Data were normalized to the measured anisotropy A0 in the absence of protein. Using a single-site binding model, the fluorescence anisotropy data were fitted to the equation:3 y=A⋅L+x+KD−L+x+KD^2−4⋅x⋅L/2⋅L where A is the anisotropy at saturation, L is the concentration of the fluorescent ligand, x is the concentration of protein titrated, and KD is the dissociation constant.

The target in a further test is T2, Survivin120 wildtype (Homo sapiens, UniProt O15392).
T2 construct: the only published NMR structure originated from a truncated Survivin (aa 1-120) with improved solubility; GST with PreScission site (N); made in house; host or cells: Escherichia coli soluBL21
T2 sequence (O15392 1-120): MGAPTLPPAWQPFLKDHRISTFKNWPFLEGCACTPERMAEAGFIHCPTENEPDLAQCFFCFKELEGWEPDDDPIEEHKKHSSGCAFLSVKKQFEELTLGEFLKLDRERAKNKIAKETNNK
In words: Fluorescence anisotropy binding of FAM-labeled tweezers to Survivin120 wildtype. The protocol:
as §1, §2
On the technique in general: Fluorescence polarisation rises when a labelled molecule tumbles more slowly, as on binding a larger partner.

The target of test [1] is TW-ELTL (asymmetrical molecular tweezer linked to the short peptide ELTL) (human). In words: ITC; tweezer conjugate (100 µM) in the cell, Survivin120 (1.2 mM WT or 2.5 mM K90/103T) in the syringe; PBS pH 7.4, 25 °C; one set of sites model.
In test [2] the target is TW-ELTLGEFL (asymmetrical molecular tweezer linked to the elongated peptide ELTLGEFL) (human). The description is as above.
Test [3] has as its target TW-LFEEGLLT (scrambled peptide-modified tweezer). Described as above.
The target in another test is TW-ELTL-FAM (human). Nature of the test: fluorescence polarisation; fluorescence anisotropy; 200 nM FAM-labeled tweezer titrated with Survivin120 (to 180 µM) or K90/103T (to 350 µM); PBS pH 7.4, 25 °C; single-site model.
The target in the next test is TW-ELTLGEFL-FAM (human). The test is described as above.
The next test concerns the target Survivin142-HA (human) (UniProt O15392). In words: pull-down; competition in the pull-down of a5: 293T lysate with Survivin142-HA preincubated 1 h with 10 nM to 200 µM tweezer conjugate before GST-CRM1, RanQ69L and dGTP.
For test [4], the target named is Atto488-labeled Survivin120 (human) (UniProt O15392). In words: fluorescence polarisation; fluorescence anisotropy competition; Atto488-Survivin120 preincubated with CRM1_1-1062VLV430AAA at 1:5, titrated with tweezers to approx. 180 µM; PBS pH 7.4, 25 °C; n = 1.
Sequence of Atto488-labeled Survivin120 (human) (O15392 1-120): as above

Sequence of Survivin142-HA (human) (O15392 whole entry): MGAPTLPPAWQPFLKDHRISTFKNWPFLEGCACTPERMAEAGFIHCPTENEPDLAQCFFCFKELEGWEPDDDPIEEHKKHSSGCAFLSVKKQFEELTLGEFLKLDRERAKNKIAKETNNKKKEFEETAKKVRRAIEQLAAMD
T1 sequence (O15392 1-120 K90T/K103T): as the sequence (O15392 1-120) above, with K90T, K103T counted along it

For `CC(C)C[C@H](NC(=O)[C@H](CCC(=O)O)NC(=O)Cn1cc(CCOP(=O)(O)Oc2c3c(c(OP(=O)(O)O)c4c2[C@H]2C[C@@H]4c4cc5c(cc42)[C@H]2C[C@@H]5c4ccccc42)[C@H]2C[C@@H]3c3cc4c(cc32)[C@H]2C[C@@H]4c3ccccc32)nn1)C(=O)N[C@H](C(=O)N[C@@H](CC(C)C)C(=O)N[C@@H](CCCCNC(=O)c1ccc2c(c1)C(=O)OC21c2ccc(O)cc2Oc2cc(O)ccc21)C(=O)NCC(=O)O)[C@@H](C)O` [TW-ELTL-FAM], the Kd at Survivin120 K90/103T was 240 ± 20 µM; on Survivin120 wildtype, 26 ± 2 µM.

For `CC(C)C[C@H](NC(=O)[C@H](Cc1ccccc1)NC(=O)[C@H](CCC(=O)O)NC(=O)CNC(=O)[C@H](CC(C)C)NC(=O)[C@@H](NC(=O)[C@H](CC(C)C)NC(=O)[C@H](CCC(=O)O)NC(=O)Cn1cc(CCOP(=O)(O)Oc2c3c(c(OP(=O)(O)O)c4c2C2CC4c4cc5c(cc42)C2CC5c4ccccc42)C2CC3c3cc4c(cc32)C2CC4c3ccccc32)nn1)[C@@H](C)O)C(=O)N[C@@H](CCCCNC(=O)c1ccc2c(c1)C(=O)OC21c2ccc(O)cc2Oc2cc(O)ccc21)C(=O)NCC(=O)O` [TW-ELTLGEFL-FAM] (X1-ELTLGEFLK(5FAM)G-OH), the Kd at Survivin120 K90/103T turned out to be 92 ± 5 µM; at Survivin120 wildtype it was 5 ± 0.5 µM.

Regarding “Survivin120 (truncated Survivin, aa 1-120) (from UniProt O15392 1-120) (domain or fragment)”, the Kd in test [1] is 24 µM; in [2], 19 µM; in test [3], 68 µM; with TW-ELTL-FAM (human), 26 µM; in the test with TW-ELTLGEFL-FAM (human) it was 5 µM. Moreover, the stoichiometry N (ligand/protein) in [1] and in [2] was 2 in each case.

Regarding “TW-ELTL (asymmetrical molecular tweezer linked to the short peptide ELTL)”, the concentration required to disrupt the Survivin–CRM1 complex with Survivin142-HA (human) was in the range of 10 to 50 µM. Besides, in test [4], the IC50 worked out at 39 µM.

In the test with Survivin142-HA (human), “TW-ELTLGEFL (asymmetrical molecular tweezer linked to the elongated peptide ELTLGEFL)” gave a concentration effective in disrupting the Survivin–CRM1 complex of 1 to 10 µM. In addition, in [4], the IC50 was determined as 12 µM.

One may read the Kd as the equilibrium constant for the complex coming apart. A high value points to weaker binding. A word on the IC50: it is the point on the concentration scale where inhibition reaches its midpoint. Lower therefore signals greater potency in that assay.
